PMC8322156, “Nuclear condensates of p300 formed though the structured catalytic core can act as a storage pool of p300 with reduced HAT activity” (Nature Communications, 2021)
No end group written: not given here.

T1: SIRT2-treated p300_(BRPHZ) (catalytic core BD-RING-PHD-HAT-ZZ, aa 1035-1720 of p300), hypoacetylated (human, UniProt Q09472 1035-1720, on average 4 acetyl-lysines outside the AIL left after SIRT2 treatment (sites not given))
T1 construct: human p300, BD-RING-PHD-HAT-ZZ region (BRPHZ), amino acids 1035-1720; Heterogeneously acetylated; Vector pGEX-6P-1; also called SIRT2-deacetylated p300BRPHZ; deacetylated p300
T1 sequence (looked up): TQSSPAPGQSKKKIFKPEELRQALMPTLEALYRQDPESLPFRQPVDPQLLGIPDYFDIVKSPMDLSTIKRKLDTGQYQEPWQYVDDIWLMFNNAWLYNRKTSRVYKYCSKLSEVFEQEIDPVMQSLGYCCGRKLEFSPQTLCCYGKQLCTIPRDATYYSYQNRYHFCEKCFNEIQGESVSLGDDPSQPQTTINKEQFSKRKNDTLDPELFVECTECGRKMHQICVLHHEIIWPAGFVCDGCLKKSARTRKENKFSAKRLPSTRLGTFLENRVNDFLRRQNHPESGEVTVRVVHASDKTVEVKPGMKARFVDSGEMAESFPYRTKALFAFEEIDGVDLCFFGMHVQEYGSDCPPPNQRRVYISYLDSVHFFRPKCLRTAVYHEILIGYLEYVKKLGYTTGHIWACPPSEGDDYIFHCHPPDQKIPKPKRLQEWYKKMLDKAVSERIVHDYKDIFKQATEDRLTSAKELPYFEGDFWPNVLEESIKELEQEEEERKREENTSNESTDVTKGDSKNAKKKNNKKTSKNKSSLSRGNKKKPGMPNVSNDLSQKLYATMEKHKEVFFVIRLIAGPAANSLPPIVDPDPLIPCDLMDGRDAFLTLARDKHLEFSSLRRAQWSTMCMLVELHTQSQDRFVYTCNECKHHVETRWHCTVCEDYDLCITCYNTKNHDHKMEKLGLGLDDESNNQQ

B1: fluorescein (FAM)-labeled histone H3 tail peptide (residues 1-12 of H3) (peptide, UniProt P68431 2-13, looked up)
peptide: ARTKQTARKSTG
modifications: also: fluorescein (FAM) label, position not given here
notes: histone H3 tail, residues 1-12, unmodified; also called FAM-H3; FAM-labeled H3_(1-12) peptide

What was measured:
[1] = test system: p300 BRPHZ, SIRT2-deacetylated (~4 Kac, outside the AIL) (human); assay: EMSA; conditions: EMSA: 20 mM Tris-HCl pH 7.5, 50 mM NaCl (75 mM for NCP), 2 mM DTT, 5 min; 5% PAGE in 0.2x TBE (DNA) or 0.2x TB (NCP), 100 V, on ice; SYBR Gold
[2] = molecular target: T1, SIRT2-treated p300_(BRPHZ) (catalytic …); assay: recruitment of a labelled peptide into condensates (confocal microscopy); 13 uM SIRT2-treated p300 condensates (PEG-induced) mixed with 6 uM FAM-labeled H3 tail (aa 1-12); FAM alone as control; conditions: both partners purified

Molecule	Kd [1] [nM]	binding result [2]
601 DNA 147 bp	300	
B1		binds
